Reference: patent US20070134663

Legend:
[1] = biological target: FLAG-Luc [luciferase: P08659]
MSN-V5-His, P26038 = biological target: T1, MSN-V5-His, P26038
T1 chain: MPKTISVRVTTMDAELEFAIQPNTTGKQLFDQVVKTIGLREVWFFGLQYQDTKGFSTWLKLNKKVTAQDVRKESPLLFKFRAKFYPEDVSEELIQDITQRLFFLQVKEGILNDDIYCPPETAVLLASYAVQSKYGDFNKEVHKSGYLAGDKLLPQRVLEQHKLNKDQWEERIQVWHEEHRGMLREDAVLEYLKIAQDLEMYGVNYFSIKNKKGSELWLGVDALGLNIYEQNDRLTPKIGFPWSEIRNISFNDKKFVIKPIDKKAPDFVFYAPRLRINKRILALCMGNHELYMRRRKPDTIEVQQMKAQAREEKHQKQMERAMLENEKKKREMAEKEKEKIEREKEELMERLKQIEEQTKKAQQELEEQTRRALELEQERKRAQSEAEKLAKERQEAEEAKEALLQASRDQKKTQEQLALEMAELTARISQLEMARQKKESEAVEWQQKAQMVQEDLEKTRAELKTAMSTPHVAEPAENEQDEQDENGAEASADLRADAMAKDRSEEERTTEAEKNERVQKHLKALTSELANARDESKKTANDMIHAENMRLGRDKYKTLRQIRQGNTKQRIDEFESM

FLAG-Luc [luciferase: P08659], sequence (P08659 whole entry): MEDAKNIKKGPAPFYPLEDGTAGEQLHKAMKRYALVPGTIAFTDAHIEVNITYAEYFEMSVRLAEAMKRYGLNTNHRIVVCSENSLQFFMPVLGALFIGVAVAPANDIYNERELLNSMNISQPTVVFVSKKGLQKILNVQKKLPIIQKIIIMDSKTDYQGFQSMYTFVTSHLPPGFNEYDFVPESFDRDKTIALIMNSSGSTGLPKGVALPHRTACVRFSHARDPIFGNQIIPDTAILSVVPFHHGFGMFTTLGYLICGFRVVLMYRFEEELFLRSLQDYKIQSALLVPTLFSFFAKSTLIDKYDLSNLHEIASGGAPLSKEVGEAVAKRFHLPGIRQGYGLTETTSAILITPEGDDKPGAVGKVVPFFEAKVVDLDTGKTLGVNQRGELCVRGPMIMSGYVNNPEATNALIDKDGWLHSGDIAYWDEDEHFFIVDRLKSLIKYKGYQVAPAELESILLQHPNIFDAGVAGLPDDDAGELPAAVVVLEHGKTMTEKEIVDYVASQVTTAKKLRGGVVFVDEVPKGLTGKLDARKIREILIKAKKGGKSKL

B1: purified PKC theta (Upstate) (protein)
chain: MSPFLRIGLSNFDCGSCQSCQGEAVNPYCAVLVKEYVESENGQMYIQKKPTMYPPWDSTFDAHINKGRVMQIIVKGKNVDLISETTVELYSLAERCRKNNGKTEIWLELKPQGRMLMNARYFLEMSDTKDMNEFETEGFFALHQRRGAIKQAKVHHVKCHEFTATFFPQPTFCSVCHEFVWGLNKQGYQCRQCNAAIHKKCIDKVIAKCTGSAINSRETMFHKERFKIDMPHRFKVYNYKSPTFCEHCGTLLWGLARQGLKCDACGMNVHHRCQTKVANLCGINQKLMAEALAMIESTQQARCLRDTEQIFREGPVEIGLPCSIKNEARPPCLPTPGKREPQGISWESPLDEVDKMCHLPEPELNKERPSLQIKLKIEDFILHKMLGKGSFGKVFLAEFKKTNQFFAIKALKKDVVLMDDDVECTMVEKRVLSLAWEHPFLTHMFCTFQTKENLFFVMEYLNGGDLMYHIQSCHKFDLSRATFYAAEIILGLQFLHSKGIVYRDLKLDNILLDKDGHIKIADFGMCKENMLGDAKTNTFCGTPDYIAPEILLGQKYNHSVDWWSFGVLLYEMLIGQSPFHGQDEEELFHSIRMDNPFYPRWLEKEAKDLLVKLFVREPEKRLGVRGDIRQHPLFREINWEELERKEIDPPFRPKVKSPFDCSNFDKEFLNEKPRLSFADRALINSMDQNMFRNFSFMNPGMERLIS
FLAG-KPNA1, P52294
FLAG-KPNA1, P52294, sequence (P52294 whole entry): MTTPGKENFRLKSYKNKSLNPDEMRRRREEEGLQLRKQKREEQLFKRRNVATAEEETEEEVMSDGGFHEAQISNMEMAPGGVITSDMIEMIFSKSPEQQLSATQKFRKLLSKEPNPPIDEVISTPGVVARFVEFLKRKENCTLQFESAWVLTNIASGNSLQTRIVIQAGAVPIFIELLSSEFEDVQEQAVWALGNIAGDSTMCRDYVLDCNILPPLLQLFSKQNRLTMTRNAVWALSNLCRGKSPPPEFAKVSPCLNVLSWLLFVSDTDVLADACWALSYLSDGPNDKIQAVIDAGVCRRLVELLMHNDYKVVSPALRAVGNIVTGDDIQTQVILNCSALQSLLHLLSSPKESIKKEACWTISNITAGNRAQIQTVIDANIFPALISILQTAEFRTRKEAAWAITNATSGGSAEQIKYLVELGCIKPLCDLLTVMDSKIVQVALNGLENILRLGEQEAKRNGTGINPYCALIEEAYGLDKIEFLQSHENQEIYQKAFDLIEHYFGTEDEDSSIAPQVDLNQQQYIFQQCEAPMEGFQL
  phosphorylation of substrate, in vitro kinase assay with gamma-32P-ATP, SDS-PAGE and autoradiography: phosphorylated band of KPNA1 (molecular weight of about 63 kDa) was observed
[1]
  phosphorylation of substrate, in vitro kinase assay with gamma-32P-ATP, SDS-PAGE and autoradiography: the negative control Luc does not contain phosphorylated band (molecular weight of about 62 kDa)
MSN-V5-His, P26038
  phosphorylation of substrate, in vitro kinase assay with gamma-32P-ATP, SDS-PAGE and autoradiography: the positive control MSN contains phosphorylated band (molecular weight of about 71 kDa)
